# Test system: KasI restriction endonuclease (recombinant, cell extract) (Kluyvera ascorbata)
# Assay: cleavage_in_vitro
# Settings: lambda DNA, 37 C, 1 h; nearly 10^6
sequence,measurement,value
GGCGCC (double strand) [KasI recognition site (lambda DNA)],activity (units per gram of cells),1e+06
